Data: US20220363718A1 (Bicycle, published 2022)
*1 amine or outer side, *2 acyl side, *3 side chain or, on linkers, in order; H or OH if unused. Bridges are numbered along the chain shown (N, C = ends). Where no end group is shown, it is not given here. [ ]: non-standard residue; d: D form. Phe(4-OMe) = 4-methoxy-phenylalanine (4-MeOPhe) = O-methyl-tyrosine, COc1ccc(C[C@H](N[*:1])C(=O)[*:2])cc1; TATA = O=C(CC[*:1])N1CN(C(=O)CC[*:2])CN(C(=O)CC[*:3])C1; Abu(4,4,4-F3) = N[C@@H](CC(F)(F)F)C(=O)O; Orn = NCCC[C@H](N)C(=O)O

B1: Example 28 (peptide)
peptide: CWWLQDCWXGXC
modifications: not fully specified; N-term acetyl; CWWLQDCW[ADMA]G[4-FPhe]C as printed; 3 Cys on TATA
B2: Example 43 (peptide)
peptide: CQWLFDCWRGXC
modifications: not fully specified; N-term acetyl; CQWLFDCWRG[4-FPhe]C as printed; 3 Cys on TATA
B3: Example 126 (peptide)
peptide: CAWLEDCWRGXC
modifications: not fully specified; N-term acetyl; C[dA]WLEDCWRG[4-FPhe]C as printed; 3 Cys on TATA
B4: Example 23 (peptide)
peptide: CQWLENCWRGXC
modifications: not fully specified; N-term acetyl; CQWLENCWRG[4-FPhe]C as printed; 3 Cys on TATA
B5: Example 21 (peptide)
peptide: CQXLEDCXRGXC
modifications: not fully specified; N-term acetyl; CQ[5FTrp]LEDC[5FTrp]RG[4-FPhe]C as printed; 3 Cys on TATA
B6: Example 105 (peptide)
peptide: CQWLXDCWRGXC
modifications: not fully specified; N-term acetyl; CQWL[3-ClPhe]DCWRG[4-FPhe]C as printed; 3 Cys on TATA

Target: T1, Biotinylated human TSLP (human, biotinylated)
T1 construct: also called hTSLP; thymic stromal lymphopoietin
T1 sequence (chain, as listed by the source limits assumed): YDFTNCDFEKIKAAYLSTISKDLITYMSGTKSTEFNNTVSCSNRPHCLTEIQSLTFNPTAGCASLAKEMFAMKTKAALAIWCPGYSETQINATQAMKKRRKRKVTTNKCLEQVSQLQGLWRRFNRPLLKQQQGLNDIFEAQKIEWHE
Experiment: SPR, biotinylated hTSLP on streptavidin chip

Row | Kd [nM] | Binder
1 | 380 | CQWLEDCWRGFCDTSTHS (linker 1-7-12 via TATA; not fully specified (C-terminus)) [Example 128]
2 | 300 | ACNWLEDCWHGFCHEE (linker 2-8-13 via TATA; not fully specified (C-terminus)) [Example 125]
3 | 290 | ACDWDWEYDCWLHCA (linker 2-10-14 via TATA) [Example 198]
4 | 8.6 | CQWLQDCWXGXC (N-term acetyl; CQWLQDCW[ADMA]G[4-FPhe]C as printed; 3 Cys on TATA) [Example 20]
5 | 12 | B1
6 | 80 | CQWLEDCWXGXC (N-term acetyl; CQWLEDCW[4-PipA]G[4-FPhe]C as printed; 3 Cys on TATA) [Example 70]
7 | 5600 | CHWLENCWXGFC (not fully specified; N-term acetyl; CHWLENCW[Dap]GFC as printed; 3 Cys on TATA) [Example 159]
8 | 81 | RVNTHQCRDLDPWTCSSWWLCA (linker 7-15-21 via TATA) [Example 190]
9 | 940 | CQWXEDCWRGFC (N-term acetyl; CQW[M(O)]EDCWRGFC as printed; 3 Cys on TATA) [Example 147]
10 | 81 | ACDWHWEYDCWLSCA (linker 2-10-14 via TATA) [Example 199]
11 | 460 | ACDWVWEYDCWLPCA (linker 2-10-14 via TATA) [Example 197]
12 | 72 | SHVCRDLDPWTCDSWWLCA (linker 4-12-18 via TATA) [Example 188]
13 | 160 | Ac-CDWLEDCWRGFCTTS (linker 1-7-12 via TATA; not fully specified (C-terminus)) [Example 100]
14 | 3200 | CQWLEDCWXGFC (not fully specified; N-term acetyl; CQWLEDCW[Dap]GFC as printed; 3 Cys on TATA) [Example 155]
15 | 750 | CQWLEDCWRGXC (N-term acetyl; CQWLEDCWRG[3-BrPhe]C as printed; 3 Cys on TATA) [Example 143]
16 | 520 | ACFWLEDCWRGYCETA (linker 2-8-13 via TATA) [Example 138]
17 | 520 | ACEWLEDCWKGFCHSE (linker 2-8-13 via TATA) [Example 136]
18 | 6.7 | CHWLEDCWRGXC (N-term acetyl; CHWLEDCWRG[4-FPhe]C as printed; 3 Cys on TATA) [Example 19]
19 | 30 | B2
20 | 310 | B3
21 | 51 | CQWIEDCWRGXC (N-term acetyl; CQWIEDCWRG[4-FPhe]C as printed; 3 Cys on TATA) [Example 57]

Row | Kd [nM] | Binder
22 | 21 | CQWLFDCWRGXC (N-term acetyl; CQWLFDCWRG[4-FPhe]C as printed; C-terminal -COOH; 3 Cys on TATA) [Example 39]
23 | 9.9 | B4
24 | 600 | ACDWLDDCWKGFCA (linker 2-8-13 via TATA) [Example 141]
25 | 400 | CQWLEDCWXGFC (N-term acetyl; CQWLEDCW[Can]GFC as printed; 3 Cys on TATA) [Example 131]
26 | 580 | ACRDLDPWTCSSWWLCKPDHVDA (linker 2-10-16 via TATA) [Example 177]
27 | 15000 | CTELDXWTCETWWLC (CTELD[Chx-P]WTCETWWLC as printed; 3 Cys on TATA) [Example 195]
28 | 300 | C[Orn]ELDPWTCETWWLC (linker 1-9-15 via TATA) [Example 180]
29 | 1100 | Ac-CQWLEDCWAGFC (linker 1-7-12 via TATA) [Example 149]
30 | 250 | CQWLQDCFRGXC (N-term acetyl; CQWLQDCFRG[4-FPhe]C as printed; 3 Cys on TATA) [Example 118]
31 | 900 | CQXLEDCWXGXC (N-term acetyl; CQ[ButG]LEDCW[ButG]G[4-FPhe]C as printed; 3 Cys on TATA) [Example 145]
32 | 170 | CQWLEDCWXGFC (not fully specified; CQWLEDCW[Cit]GFC as printed; 3 Cys on TATA) [Example 102]
33 | 300 | ACRDLDPWTCSSWWLCSSDTTDA (linker 2-10-16 via TATA) [Example 176]
34 | 330 | ACVDLDPWSCEDWWLCA (linker 2-10-16 via TATA) [Example 183]
35 | 170 | ACKDLDPWTCSSWWECAPN (linker 2-10-16 via TATA; not fully specified (C-terminus)) [Example 167]
36 | 490 | CQWLEDCWRGXC (N-term acetyl; CQWLEDCWRG[2ThienylA]C as printed; 3 Cys on TATA) [Example 135]
37 | 310 | RDLCTDLDPWTCPDWWLCA (linker 4-12-18 via TATA) [Example 189]
38 | 3300 | CQWLEDCWXGFC (not fully specified; CQWLEDCW[Dap]GFC as printed; 3 Cys on TATA) [Example 156]
39 | 9.2 | B5
40 | 230 | ACTELDPWTCETWWLCA (linker 2-10-16 via TATA; not fully specified (C-terminus)) [Example 163]
41 | 68 | DHDCTWNWEYDCWLDCA (linker 4-12-16 via TATA) [Example 200]
42 | 6100 | ACDWQWSYDCWLPCA (linker 2-10-14 via TATA) [Example 196]

Row | Kd [nM] | Binder
43 | 160 | ACEWLEDCWRGFCA (linker 2-8-13 via TATA; not fully specified (C-terminus)) [Example 101]
44 | 250 | RENCRWLDDCWQGFCA (linker 4-10-15 via TATA) [Example 117]
45 | 170 | ACRDLDPWTCEEWWLCAHP (linker 2-10-16 via TATA) [Example 170]
46 | 30 | AHPCADLDPWTCPNWWLCA (linker 4-12-18 via TATA; not fully specified (C-terminus)) [Example 165]
47 | 400 | CQWLEDCWRGXC (N-term acetyl; CQWLEDCWRG[3-CNPhe]C as printed; 3 Cys on TATA) [Example 130]
48 | 86 | RAPCPDLDPWTCSDWWLCA (linker 4-12-18 via TATA) [Example 187]
49 | 1300 | CTELDXWTCETWWLC (CTELD[diF-P]WTCETWWLC as printed; 3 Cys on TATA) [Example 182]
50 | 290 | CTELDXWTCETWWLC (CTELD[5-Ph-P]WTCETWWLC as printed; 3 Cys on TATA) [Example 194]
51 | 180 | B6
52 | 860 | CWWLXDCWRGXC (N-term acetyl; CWWL[3-ClPhe]DCWRG[4-FPhe]C as printed; 3 Cys on TATA) [Example 144]
53 | 290 | ACRDLDPWTCPTWWTCYDE (linker 2-10-16 via TATA; not fully specified (C-terminus)) [Example 168]
54 | 240 | ACRDLDPWTCSSWWLCSESVHTA (linker 2-10-16 via TATA) [Example 175]
55 | 200 | Ac-CQW[Abu(4,4,4-F3)]EDCWRGFC (linker 1-7-12 via TATA; not fully specified (C-terminus)) [Example 111]
56 | 710 | Ac-CQWLEDCWRG[Phe(4-OMe)]C (linker 1-7-12 via TATA) [Example 142]
57 | 180 | CQWLEDCWXGFC (not fully specified; N-term acetyl; CQWLEDCW[Cit]GFC as printed; 3 Cys on TATA) [Example 104]
58 | 360 | CKELDPWTCETWWLC (linker 1-9-15 via TATA) [Example 179]
59 | 310 | CQELDPWTCETWWLC (linker 1-9-15 via TATA) [Example 181]
60 | 890 | ACESLDPWSCPVWWRCA (linker 2-10-16 via TATA; not fully specified (C-terminus)) [Example 161]
61 | 50 | ACRDLDPWTCSSWWLCADGLYDA (linker 2-10-16 via TATA) [Example 193]
62 | 290 | ACTDLDPWTCNSWWLCAGD (linker 2-10-16 via TATA; not fully specified (C-terminus)) [Example 169]
